The supplement of paper PMC6757056
± gives the standard deviation of the averaged measurements.

B1: library; a variant is named by its letters at N, in order (parent)
chain: GCUGUCACCGAGAAACUGUGAAGUAUAUCUUAAACCUGGGCACUUAAAAGAUAUAUGGAGUUAGUAGUGCAACCUGCUCGGUCUGAUGAGUCCNNNNNNGGACGAAACAGC

Assays:
cyclic di-GMP [1] = variants of: B1; assay: normalized RNA/DNA level without ligand (relative to sTRSVctl = 100) (log10 (% of sTRSVctl)); HEK293T; ligand: cyclic di-GMP (c-di-GMP-II aptamer); higher = less ribozyme self-cleavage, higher mRNA level; details: reporter: mCherry (pCS4076), ligand present: no
Procedure, shortened: (§1)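 Library plasmids encoding reporter-linked ribozyme switches (mCherry, or eGFP for some folinic acid experiments) were transfected into HEK293T at 4 µg per 6-well well. Ligand, when used, was added 1 h before transfection. Total RNA was extracted with EDTA 72 h later, then reverse-transcribed, amplified, barcoded and sequenced. RNA level was RNA reads over DNA reads, divided by a spiked-in non-cleaving control (or the top 25 sequences), ×100, log10; only sequences with ≥100 DNA reads were kept.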

cyclic di-GMP [2] = variants of: B1; assay: normalized RNA/DNA level with ligand (relative to sTRSVctl = 100) (log10 (% of sTRSVctl)); HEK293T; ligand: cyclic di-GMP (c-di-GMP-II aptamer); ligand concentration (+) RNA-Seq: 1 mM; higher = less ribozyme self-cleavage, higher mRNA level; details: reporter: mCherry (pCS4076), ligand present: yes
Procedure, shortened: as §1

ACCUUG
normalized RNA/DNA level without ligand (log10) (cyclic di-GMP [1]): 1.7 ± 0.065 | normalized RNA/DNA level with ligand (log10) (cyclic di-GMP [2]): 1.81 ± 0.063

CAGCGG
normalized RNA/DNA level without ligand (log10) (cyclic di-GMP [1]): 1.78 ± 0.032 | normalized RNA/DNA level with ligand (log10) (cyclic di-GMP [2]): 1.9 ± 0.14

ACGCUA
normalized RNA/DNA level without ligand (log10) (cyclic di-GMP [1]): 1.53 ± 0.026 | normalized RNA/DNA level with ligand (log10) (cyclic di-GMP [2]): 1.72 ± 0.13

UAGGAG
normalized RNA/DNA level without ligand (log10) (cyclic di-GMP [1]): 1.59 ± 0.05 | normalized RNA/DNA level with ligand (log10) (cyclic di-GMP [2]): 1.76 ± 0.13

UUCACC
normalized RNA/DNA level without ligand (log10) (cyclic di-GMP [1]): 1.778 ± 0.0039 | normalized RNA/DNA level with ligand (log10) (cyclic di-GMP [2]): 1.89 ± 0.078

AUCGUC
normalized RNA/DNA level without ligand (log10) (cyclic di-GMP [1]): 1.85 ± 0.056 | normalized RNA/DNA level with ligand (log10) (cyclic di-GMP [2]): 1.92 ± 0.092

GUAGCG
normalized RNA/DNA level without ligand (log10) (cyclic di-GMP [1]): 1.81 ± 0.022 | normalized RNA/DNA level with ligand (log10) (cyclic di-GMP [2]): 1.88 ± 0.059

UUGUCU
normalized RNA/DNA level without ligand (log10) (cyclic di-GMP [1]): 1.8 ± 0.03 | normalized RNA/DNA level with ligand (log10) (cyclic di-GMP [2]): 1.92 ± 0.086

GUCAGU
normalized RNA/DNA level without ligand (log10) (cyclic di-GMP [1]): 1.63 ± 0.022 | normalized RNA/DNA level with ligand (log10) (cyclic di-GMP [2]): 1.77 ± 0.15

GGCAAA
normalized RNA/DNA level without ligand (log10) (cyclic di-GMP [1]): 1.55 ± 0.074 | normalized RNA/DNA level with ligand (log10) (cyclic di-GMP [2]): 1.65 ± 0.16

UAUCUU
normalized RNA/DNA level without ligand (log10) (cyclic di-GMP [1]): 1.72 ± 0.054 | normalized RNA/DNA level with ligand (log10) (cyclic di-GMP [2]): 1.88 ± 0.088

AGCUGU
normalized RNA/DNA level without ligand (log10) (cyclic di-GMP [1]): 1.667 ± 0.01 | normalized RNA/DNA level with ligand (log10) (cyclic di-GMP [2]): 1.8 ± 0.073

CACUGG
normalized RNA/DNA level without ligand (log10) (cyclic di-GMP [1]): 1.7 ± 0.035 | normalized RNA/DNA level with ligand (log10) (cyclic di-GMP [2]): 1.81 ± 0.13

UUAAUA
normalized RNA/DNA level without ligand (log10) (cyclic di-GMP [1]): 1.64 ± 0.044 | normalized RNA/DNA level with ligand (log10) (cyclic di-GMP [2]): 1.8 ± 0.16

GACCCC
normalized RNA/DNA level without ligand (log10) (cyclic di-GMP [1]): 1.8 ± 0.055 | normalized RNA/DNA level with ligand (log10) (cyclic di-GMP [2]): 1.88 ± 0.14

CACAGC
normalized RNA/DNA level without ligand (log10) (cyclic di-GMP [1]): 1.729 ± 0.0089 | normalized RNA/DNA level with ligand (log10) (cyclic di-GMP [2]): 1.84 ± 0.085

AUCACA
normalized RNA/DNA level without ligand (log10) (cyclic di-GMP [1]): 1.64 ± 0.069 | normalized RNA/DNA level with ligand (log10) (cyclic di-GMP [2]): 1.8 ± 0.062

GAUGUC
normalized RNA/DNA level without ligand (log10) (cyclic di-GMP [1]): 1.7082 ± 0.001 | normalized RNA/DNA level with ligand (log10) (cyclic di-GMP [2]): 1.87 ± 0.12

AUAUCU
normalized RNA/DNA level without ligand (log10) (cyclic di-GMP [1]): 1.73 ± 0.062 | normalized RNA/DNA level with ligand (log10) (cyclic di-GMP [2]): 1.86 ± 0.13

GACGUU
normalized RNA/DNA level without ligand (log10) (cyclic di-GMP [1]): 1.619 ± 0.0079 | normalized RNA/DNA level with ligand (log10) (cyclic di-GMP [2]): 1.81 ± 0.12

UGGCUU
normalized RNA/DNA level without ligand (log10) (cyclic di-GMP [1]): 1.694 ± 0.014 | normalized RNA/DNA level with ligand (log10) (cyclic di-GMP [2]): 1.88 ± 0.058

CAAUUU
normalized RNA/DNA level without ligand (log10) (cyclic di-GMP [1]): 1.51 ± 0.095 | normalized RNA/DNA level with ligand (log10) (cyclic di-GMP [2]): 1.71 ± 0.081

GUGCCC
normalized RNA/DNA level without ligand (log10) (cyclic di-GMP [1]): 1.782 ± 0.016 | normalized RNA/DNA level with ligand (log10) (cyclic di-GMP [2]): 1.84 ± 0.099

UCUCCG
normalized RNA/DNA level without ligand (log10) (cyclic di-GMP [1]): 1.839 ± 0.0029 | normalized RNA/DNA level with ligand (log10) (cyclic di-GMP [2]): 1.94 ± 0.099

UUGGAU
normalized RNA/DNA level without ligand (log10) (cyclic di-GMP [1]): 1.63 ± 0.032 | normalized RNA/DNA level with ligand (log10) (cyclic di-GMP [2]): 1.83 ± 0.1

UCUCAU
normalized RNA/DNA level without ligand (log10) (cyclic di-GMP [1]): 1.638 ± 0.0046 | normalized RNA/DNA level with ligand (log10) (cyclic di-GMP [2]): 1.78 ± 0.061

CAAGGU
normalized RNA/DNA level without ligand (log10) (cyclic di-GMP [1]): 1.64 ± 0.037 | normalized RNA/DNA level with ligand (log10) (cyclic di-GMP [2]): 1.8 ± 0.1

CCCGCC
normalized RNA/DNA level without ligand (log10) (cyclic di-GMP [1]): 1.8 ± 0.13 | normalized RNA/DNA level with ligand (log10) (cyclic di-GMP [2]): 1.92 ± 0.16

CCCUUA
normalized RNA/DNA level without ligand (log10) (cyclic di-GMP [1]): 1.47 ± 0.04 | normalized RNA/DNA level with ligand (log10) (cyclic di-GMP [2]): 1.7 ± 0.15

AUUAAU
normalized RNA/DNA level without ligand (log10) (cyclic di-GMP [1]): 1.674 ± 0.015 | normalized RNA/DNA level with ligand (log10) (cyclic di-GMP [2]): 1.8 ± 0.12

GCGUCA
normalized RNA/DNA level without ligand (log10) (cyclic di-GMP [1]): 1.624 ± 0.0059 | normalized RNA/DNA level with ligand (log10) (cyclic di-GMP [2]): 1.79 ± 0.15

UGCCCC
normalized RNA/DNA level without ligand (log10) (cyclic di-GMP [1]): 1.857 ± 0.013 | normalized RNA/DNA level with ligand (log10) (cyclic di-GMP [2]): 1.93 ± 0.092

AGGCCA
normalized RNA/DNA level without ligand (log10) (cyclic di-GMP [1]): 1.721 ± 0.017 | normalized RNA/DNA level with ligand (log10) (cyclic di-GMP [2]): 1.85 ± 0.096

AGAUCA
normalized RNA/DNA level without ligand (log10) (cyclic di-GMP [1]): 1.59 ± 0.076 | normalized RNA/DNA level with ligand (log10) (cyclic di-GMP [2]): 1.74 ± 0.081

GUAAUA
normalized RNA/DNA level without ligand (log10) (cyclic di-GMP [1]): 1.59 ± 0.044 | normalized RNA/DNA level with ligand (log10) (cyclic di-GMP [2]): 1.73 ± 0.045

UCAGCC
normalized RNA/DNA level without ligand (log10) (cyclic di-GMP [1]): 1.818 ± 0.0024 | normalized RNA/DNA level with ligand (log10) (cyclic di-GMP [2]): 1.88 ± 0.14

CUCGCC
normalized RNA/DNA level without ligand (log10) (cyclic di-GMP [1]): 1.784 ± 0.0038 | normalized RNA/DNA level with ligand (log10) (cyclic di-GMP [2]): 1.86 ± 0.095

AGUCAU
normalized RNA/DNA level without ligand (log10) (cyclic di-GMP [1]): 1.69 ± 0.071 | normalized RNA/DNA level with ligand (log10) (cyclic di-GMP [2]): 1.85 ± 0.13

GUAGAC
normalized RNA/DNA level without ligand (log10) (cyclic di-GMP [1]): 1.595 ± 0.0029 | normalized RNA/DNA level with ligand (log10) (cyclic di-GMP [2]): 1.79 ± 0.13

UACCUA
normalized RNA/DNA level without ligand (log10) (cyclic di-GMP [1]): 1.68 ± 0.018 | normalized RNA/DNA level with ligand (log10) (cyclic di-GMP [2]): 1.82 ± 0.081

ACGAUC
normalized RNA/DNA level without ligand (log10) (cyclic di-GMP [1]): 1.56 ± 0.074 | normalized RNA/DNA level with ligand (log10) (cyclic di-GMP [2]): 1.75 ± 0.085

AUGCAU
normalized RNA/DNA level without ligand (log10) (cyclic di-GMP [1]): 1.62 ± 0.045 | normalized RNA/DNA level with ligand (log10) (cyclic di-GMP [2]): 1.76 ± 0.12

CUGGUA
normalized RNA/DNA level without ligand (log10) (cyclic di-GMP [1]): 1.38 ± 0.086 | normalized RNA/DNA level with ligand (log10) (cyclic di-GMP [2]): 1.59 ± 0.076

CCACAC
normalized RNA/DNA level without ligand (log10) (cyclic di-GMP [1]): 1.65 ± 0.037 | normalized RNA/DNA level with ligand (log10) (cyclic di-GMP [2]): 1.79 ± 0.073

UAAGAC
normalized RNA/DNA level without ligand (log10) (cyclic di-GMP [1]): 1.647 ± 0.0022 | normalized RNA/DNA level with ligand (log10) (cyclic di-GMP [2]): 1.82 ± 0.13

CCCUCU
normalized RNA/DNA level without ligand (log10) (cyclic di-GMP [1]): 1.62 ± 0.03 | normalized RNA/DNA level with ligand (log10) (cyclic di-GMP [2]): 1.8 ± 0.12

CCUGAC
normalized RNA/DNA level without ligand (log10) (cyclic di-GMP [1]): 1.649 ± 0.011 | normalized RNA/DNA level with ligand (log10) (cyclic di-GMP [2]): 1.78 ± 0.11

UUACGA
normalized RNA/DNA level without ligand (log10) (cyclic di-GMP [1]): 1.77 ± 0.046 | normalized RNA/DNA level with ligand (log10) (cyclic di-GMP [2]): 1.87 ± 0.11

UACUAA
normalized RNA/DNA level without ligand (log10) (cyclic di-GMP [1]): 1.71 ± 0.014 | normalized RNA/DNA level with ligand (log10) (cyclic di-GMP [2]): 1.81 ± 0.061

AUCCAG
normalized RNA/DNA level without ligand (log10) (cyclic di-GMP [1]): 1.719 ± 0.012 | normalized RNA/DNA level with ligand (log10) (cyclic di-GMP [2]): 1.85 ± 0.13

AUGACA
normalized RNA/DNA level without ligand (log10) (cyclic di-GMP [1]): 1.581 ± 0.013 | normalized RNA/DNA level with ligand (log10) (cyclic di-GMP [2]): 1.72 ± 0.14

UACCAC
normalized RNA/DNA level without ligand (log10) (cyclic di-GMP [1]): 1.698 ± 0.0019 | normalized RNA/DNA level with ligand (log10) (cyclic di-GMP [2]): 1.82 ± 0.11

GCCUAG
normalized RNA/DNA level without ligand (log10) (cyclic di-GMP [1]): 1.74 ± 0.068 | normalized RNA/DNA level with ligand (log10) (cyclic di-GMP [2]): 1.86 ± 0.16

AAGCUU
normalized RNA/DNA level without ligand (log10) (cyclic di-GMP [1]): 1.7 ± 0.022 | normalized RNA/DNA level with ligand (log10) (cyclic di-GMP [2]): 1.84 ± 0.073

UGCUCC
normalized RNA/DNA level without ligand (log10) (cyclic di-GMP [1]): 1.858 ± 0.016 | normalized RNA/DNA level with ligand (log10) (cyclic di-GMP [2]): 1.93 ± 0.17

UUCCUU
normalized RNA/DNA level without ligand (log10) (cyclic di-GMP [1]): 1.73 ± 0.018 | normalized RNA/DNA level with ligand (log10) (cyclic di-GMP [2]): 1.9 ± 0.099

UGACAG
normalized RNA/DNA level without ligand (log10) (cyclic di-GMP [1]): 1.712 ± 0.0029 | normalized RNA/DNA level with ligand (log10) (cyclic di-GMP [2]): 1.82 ± 0.097
